Consider eleven sequences from the supplement of paper PMC9170038.

This series deals with MS2 coat protein. The series is described as follows: apparent KD of MS2 coat protein; designed switch direction (-1 OFF switch, 1 ON switch): 1; higher = weaker reporter binding. The method in brief: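 Designed RNA switches with common flanks were transcribed on Illumina chips by stalled E. coli RNA polymerase and titrated with SNAP-549-labelled MS2 coat protein, from 0.7 or 1.5 nM doubling to 3 µM, in Tris-HCl pH 7.5 buffer with KCl, MgCl2, BSA, DTT, tRNA and Tween-20. Steps lasted 0.8–1.5 h (lowest) to 10–20 min (highest). Titrations ran without input, with 200 uM small-molecule ligand, or with an oligonucleotide input. Normalised cluster fluorescence was curve-fitted, and apparent KD is the per-design median over clusters.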

Where [1] appears, read: Eterna round: R95, input ligand: FMN 200 uM.
Setting [2] is: Eterna round: R95, input ligand: microRNA oligo, concentration not stated.
Where [3] appears, read: Eterna round: R95, input ligand: none.
Where [4] appears, read: input ligand: microRNA oligo, concentration not stated.

“ACAAGACAUGAGGAUCACCCAUGUAUAAAUUACACAGGAUAUCGGCAGGCAGCACCUGCACGAGAAGGGUGACUUC [Inbilera] (puzzle: Same State 1)”: the “apparent KD of MS2 coat protein” value reads like this: under setting [1], 193 nM; under setting [2], 21.7 nM; under setting [3], 27.3 nM.
On to “ACAAGCUUUUCUGUAUUGAAAGGUGGGAUACAUGAGGAUCACCCAUGUUUUUUCGUUUGUUUUGUUCCUCGUCUUAU [JR_SHM208A_Sub090] (puzzle: Sensor for hsa-mir-208a)”, for which the “apparent KD of MS2 coat protein” value was found to be 87.7 nM under setting [1], 23.9 nM under setting [2] and 116 nM under setting [3].
On to “ACAAGCUUUUUGCUCAUCUUAUGUCCGAAACAUGAGGAUCACCCAUGUAUAGAUUAUGUGUUGUUGUAGAUGCAAGA [JR_SHM208A_Sub062] (puzzle: Sensor for hsa-mir-208a)”, for which the “apparent KD of MS2 coat protein” value reads like this: under setting [1], 31.8 nM; under setting [2], 25.9 nM; under setting [3], 42.9 nM.
Regarding “ACAAUCUGGGUAGGAUAUCUAGGAUAUGGGAAAGACUAAGUCUGUAGGUCACCUAACCCAGAUGGAGAGAAGGACCCAACACAC [pwkr ssNG2 2FMN + F9.43] (Eterna round: R96, puzzle: Same State NG 2)”, the “apparent KD of MS2 coat protein” value by setting is: (input ligand: FMN 200 uM) 95.8 nM; under setting [4], 3.94 nM; (input ligand: none) 202 nM.
As to “ACACCACAUGAGGAUCACCCAUGUGUCAAUAACACAGGAUAUCACCCGGAAAACAACGGGUGAGAAGGGUGACCGA [Edan] (puzzle: Same State 1)”, the “apparent KD of MS2 coat protein” value runs as follows: under setting [1], 107 nM; under setting [2], 44.6 nM; under setting [3], 75.8 nM.
The matching figures for “ACACGGAUACAUGAGGAUCACCCAUGUACAUGGGUUAUUACAAGCUUUUUGCUUGGGAUUAUUGGGAUUAUUAUUAA [Default title] (puzzle: Sensor for hsa-mir-208a version 2)”: 122 nM, 156 nM and 153 nM.
For “ACAUGAAAGGCAGGAUAUUUUGUACCUACAUGUGACAUGAGGAUCACCCAUGUGGUAAGUAUAAGAGAGAAGGGUCAGAUAUGU [Equivalence 2 - Jieux - Same State NG 2] (Eterna round: R96, puzzle: Same State NG 2)”, the “apparent KD of MS2 coat protein” value reads like this: (input ligand: FMN 200 uM) 28.9 nM; under setting [4], 31.7 nM; (input ligand: none) 37.2 nM.
Take “ACAUGAAAGUUAGGAUAUUUUGUACCUACAUGUGACAUGAGGAUCACCCAUGUGGUAAGUAUAAGAGAGAAGGAGCAGAUAUGU [Equivalence 1 - Jieux - Same State NG 2] (Eterna round: R96, puzzle: Same State NG 2)”: the “apparent KD of MS2 coat protein” value is, setting by setting: (input ligand: FMN 200 uM) 45.1 nM; under setting [4], 48.1 nM; (input ligand: none) 52.8 nM.
For the sequence “ACAUGAACAUGAGGAUCACCCAUGUUUAGGAUCACCCAUGCUCAGGAUAUAGCAUGAGGACAUGACUAGAAGGGAGGUGCUGAG [Same State NG3 S2] (Eterna round: R96, puzzle: Same State NG 3)”, the “apparent KD of MS2 coat protein” value (input ligand: FMN 200 uM) came to 41 nM, the “apparent KD of MS2 coat protein” value under setting [4] was 27 nM and the “apparent KD of MS2 coat protein” value (input ligand: none) stood at 36.1 nM.
The like results for “ACAUGAGAAAGAGGAUAUGUUGUACCUACAUGUGACAUGAGGAUCACCCAUGUGGUAAGUAUGAUACAGAAGGCUUAGAUAUGU [Equivalance 61 - Jieux - Same State NG 2] (Eterna round: R96, puzzle: Same State NG 2)” were, in that order, 15.1 nM, 17.8 nM and 25.6 nM.
“ACAUGAGACAUAGGAUAUGUUGUACCUACAUGUGACAUGAGGAUCACCCAUGUGGUAAGUAUGAGGCAGAAGGAUGAGAUAUGU [Equivalence 40 - Jieux - Same State NG 2] (Eterna round: R96, puzzle: Same State NG 2)”: the “apparent KD of MS2 coat protein” value reads like this: (input ligand: FMN 200 uM) 50.3 nM; under setting [4], 37 nM; (input ligand: none) 74.1 nM.
